Data published in article PMC11024467 (2024).

B1: IL-2Rαβγ complex (complex)
chain 1: ELCDDDPPEIPHATFKAMAYKEGTMLNCECKRGFRRIKSGSLYMLCTGNSSHSSWDNQCQCTSSATRNTTKQVTPQPEEQKERKTTEMQSPMQPVDQASLPGHCREPPPWENEATERIYHFVVGQMVYYQCVQGYRALHRGPAESVCKMTHGKTRWTQPQLICTGEMETSQFPGEEKPQASPEGRPESETSCLVTTTDFQIQTEMAATMETSIFTTEYQVAVAGCVFLLISVLLLSGLTWQRRQRKSRRTI
chain 2: AVNGTSQFTCFYNSRANISCVWSQDGALQDTSCQVHAWPDRRRWNQTCELLPVSQASWACNLILGAPDSQKLTTVDIVTLRVLCREGVRWRVMAIQDFKPFENLRLMAPISLQVVHVETHRCNISWEISQASHYFERHLEFEARTLSPGHTWEEAPLLTLKQKQEWICLETLTPDTQYEFQVRVKPLQGEFTTWSPWSQPLAFRTKPAALGKDTIPWLGHLLVGLSGAFGFIILVYLLINCRNTGPWLKKVLKCNTPDPSKFFSQLSSEHGGDVQKWLSSPFPSSSFSPGGLAPEISPLEVLERDKVTQLLLQQDKVPEPASLSSNHSLTSCFTNQGYFFFHLPDALEIEACQVYFTYDPYSEEDPDEGVAGAPTGSSPQPLQPLSGEDDAYCTFPSRDDLLLFSPSLLGGPSPPSTAPGGSGAGEERMPPSLQERVPRDWDPQPLGPPTPGVPDLVDFQPPPELVLREAGEEVPDAGPREGVSFPWSRPPGQGEFRALNARLPLNTDAYLSLQELQGQDPTHLV
chain 3: LNTTILTPNGNEDTTADFFLTTMPTDSLSVSTLPLPEVQCFVFNVEYMNCTWNSSSEPQPTNLTLHYWYKNSDNDKVQKCSHYLFSEEITSGCQLQKKEIHLYQTFVVQLQDPREPRRQATQMLKLQNLVIPWAPENLTLHKLSESQLELNWNNRFLNHCLEHLVQYRTDWDHSWTEQSVDYRHKFSLPSVDGQKRYTFRVRSRFNPLCGSAQHWSEWSHPIHWGSNTSKENPFLFALEAVVISVGSMGLIISLLCVYFWLERTMPRIPTLKNLEDLVTEYHGNFSAWSGVSKGLAESLQPDYSERLCLVSEIPPKGGALGEGPGASPCNQHSPYWAPPCYTLKPET
B2: IL-2Rβγ complex (complex)
chain 1: B1 chain 2
chain 2: B1 chain 3
B3: IL-2Rαβγ complex (complex)
chain 1: ELCDDDPPEIPHATFKAMAYKEGTMLNCECKRGFRRIKSGSLYMLCTGNSSHSSWDNQCQCTSSATRNTTKQVTPQPEEQKERKTTEMQSPMQPVDQASLPGHCREPPPWENEATERIYHFVVGQMVYYQCVQGYRALHRGPAESVCKMTHGKTRWTQPQLICTGEMETSQFPGEEKPQASPEGRPESETSCLVTTTDFQIQTEMAATMETSIFTTEYQ
chain 2: AVNGTSQFTCFYNSRANISCVWSQDGALQDTSCQVHAWPDRRRWNQTCELLPVSQASWACNLILGAPDSQKLTTVDIVTLRVLCREGVRWRVMAIQDFKPFENLRLMAPISLQVVHVETHRCNISWEISQASHYFERHLEFEARTLSPGHTWEEAPLLTLKQKQEWICLETLTPDTQYEFQVRVKPLQGEFTTWSPWSQPLAFRTKPAALGKDT
chain 3: LNTTILTPNGNEDTTADFFLTTMPTDSLSVSTLPLPEVQCFVFNVEYMNCTWNSSSEPQPTNLTLHYWYKNSDNDKVQKCSHYLFSEEITSGCQLQKKEIHLYQTFVVQLQDPREPRRQATQMLKLQNLVIPWAPENLTLHKLSESQLELNWNNRFLNHCLEHLVQYRTDWDHSWTEQSVDYRHKFSLPSVDGQKRYTFRVRSRFNPLCGSAQHWSEWSHPIHWGSNTSKENPFLFALEA
B4: IL-2Rβγ complex (complex)
chain 1: B3 chain 2
chain 2: B3 chain 3
B5: IL-2Rα (receptor)
chain: B3 chain 1
B6: IL-2Rβ (receptor)
chain: B3 chain 2

Each binder was assayed against IL-2 variant 012 (assay: SPR).

Row | Kd | Binder
1 | 0.575 nM | B1
2 | 0.467 nM | B2

Each binder was assayed against Wild type IL-2 (de-alanine-1, C58S, C125S) (UniProt P60568 21-153, de-alanine-1 | C58S | C125S) (assay: SPR).

Row | Kd | Binder
3 | 0.0423 nM | B3
4 | 0.463 nM | B4
5 | 47.5 nM | B5
6 | 89.1 nM | B6
